Assay: label from the status in PepcDB records

Sequence	protein production
MAAGKRDYYEVLGISKNASSQDIKRAFRKLAMQYHPDRHKAENETTQKQNEEKFKEVNEAYEVLSDEEKRKLYDQFGHEGLNASGFHEAGFNPFDIFNSVFGEGFSFGMDGDSPFDFIFNRSKKRQQQIVVPYNLDIALVIEINFFEMTNGCNKTIKYERKVSCHSCNGFGAEGGESGLDLCKDCNGNGFVIKNQRSIFGTIQSQVLCSTCNGQGKQIKVKCKTCRSNKYTVTNQIKEINIPAGMYSGEALVDESGGNEFKGHYGKLIIQVNVLASKIFKRSDNNVIANVLVDPMVAIVGGVIELPTLEGIKEFNIRPGTKSGEQIVIPNGGIKFSKSFKRKAGDLIIIISYARPCEYTNLELKKLREFIKPNQEVKQYLNTLKNEYKT	failed
MAAGKTHDKITVIMTPFIASFFLFINMIFLEDLGSSLAFTILGVSIYMFGGYMFSGDLDIKSREFRRWGYLKFIWIPYQKLFEHRSVFTHGFILGPIIRILYVSIIPITISSLLYSFSIINISTPEMLKLVFNFILKNKILFGNMALALFLGSGLHTITDMIYSYFKRKFSYKKRKSSKKYSRSKRPSRRAA	failed
MAAKKDYYAILGVPRNATQEEIKRAYKRLARQYHPDVNKSPEAEEKFKEINEAYAVLSDPEKRRIYDTYGTTEAPPPPPPGGYDFSGFDVEDFSEFFQELFGPGLFGGFGRRSRKGRDLRAELPLTLEEAFHGGERVVEVAGRRVSVRIPPGVREGSVIRVPGMGGQGNPPGDLLLVVRLLPHPVFRLEGQDLYATLDVPAPIAVVGGKVRAMTLEGPVEVTIPPRTQAGRKLRLRGKGFPGPAGRGDLYLEVRITIPERLTPEEEALWKKLAEAYYARA	failed
MAALSEKEAEAYLDARPRYPIDWFKKIAARTQDHKFAWDVGTGNGQAAIGLVEHYENVVATDINEAQLQRAIKHSRISYHHTPTTISEDEMVDLLGGENSVDLIVAAQAVHFFDLNVFYNVAKRVLRKEGGLIAVWVYNDIIISHEIDPIMKRLVDSTLPFRTPIMNLAFDGYKTLTFPFETIGMGSEGKPITLDIPHKLSLKGFIGFLRSWQPAMKAKEKGVELINEDLITKFEEAWGDETQVKDVFYKAHMIVGKIPEEKFESDQVLSNKGRLLLETEVGRNQKRPQPSDEGDRQSKKQNTSEDDACKDKPSSVFSTHYRF	failed
MAALSNLKQCPPFSTLPDLALRHNHIPELERYPQINLNSELLANPAGQRYYGGQSFVSVNEGVLKRIARSFFNGGFWKTLEEARSPETREQAPLIAQAGDLIAQFLGLATGLRILPHTQQLSAERIAQFVETRDWLNSDVRYLAWNQHFFCLAVAGVDDVVRIYTKSSSATTATVLKSPSQTQITCMAWRPLCASEIVIGCRQGLCFWEVDSTLHLGRTNAPSEIFKYPNNLPITSMQWNKDGTQLATASIGDRSIIIWQPDTGMMQPLKRLGPPGSLLKWSPDNDWLFAATVDRVFRVWNCHQQWTTERWVCGPGGYVQTACWSPCGRFLLFVSSAEPILYRLQFVQQSLLSSSADEKEILPIADLNACSIDANRTLVGGPAQQLAWDPHGNYLVVTFKATNCIAVFRTFIQKFDLQISAAYYLSGETAAEHPSFICFQPLYEDNDRSVLTIAWSSGRIQYYAFD	failed
MAAPLIPVLTAPTAAGKTALALRLAREYGLEIVAADAFTVYRGLDLGTAKPTPQERASVPHHLLDVVDVTQSYDVAQYAAQAEAAIVDILARGRLPLVVGGTGFYLSALSRGLPLTPPSDPKMRAALEAELQERGLDALLAEIEQANPAEAARMERNPRRVVRALEVYRAAGRFPGEFGYSPPAFQYQVFAFSPPAAEMEQRVQERTAAMLRAGWPQEAQWLAGQVPPEQEPRPTVWQALGYAEALAVAQGRLSLAGAEQAIALATRQYGKRQLTWMRRQLGAEVQSPDAAEAHLRAFLERSGAPSLEHHHHHH	failed
MAAPSGVPPMRVLEELGINLSPTGEVTETEAVAAEGAYYLEQVTITETSEDECEYEEIPDDNFSIPEGEEDLAKAIHMVDEQATDTHILEQQTILPSRHVMQEAIEDFLCNFLIKMGMTRTLDCFQAEWYELIQKTGSDLRTLGNVPDVYSQVMLLETENKNLKKDLKHFKQAAEKAKEDLLKTQKERDFHRMHHKRILQEKNKLIADLKGLKLHYASYEPTIRVLHEKHHALLKEKMLTSLERDRAVGKISGLQATLKNIDIGHIQVPVIKGSYETASILRELGDKAGHTYEKENSSEGPTQKNLREAREENGYKTKMKSERKDSEFPVDMQPDPNLTACTESLPTAKFDYRLNNIFRLHELPVSCICTHSVRDTMILCSEVRMWAGVGMDSGSISITPSGISRWISGCCDHPNRSWLLTSNGNRTLSLWELPEGKCTLTLQSLCQHHHFIWSCSWHICSRCAAQSSYRSTPKVWFLSVERCRYTLYGHTDSVNSIEFFPFSNTLLTASADKTLSVWDARTSHCQQSLYGHIRNIHIVKFTTPRLRGHILASCDSRGVIKLWDFRKLIPIVSIDVGPSPGNEVNFDPSGRVLAQASANGIIHLLDLKSGQIHKLVGHESEVHTVIFSHRAENLYSGGSDGTIRLWL	failed
MAASFAFLRDVRPYKTSWRVQVKVLHSWCQYTNMTGETLKLVLVNSQGVKIHASVKKDLVSKYVNNLPLNEWTFIETFALNHASGQFRPTGHLYKMSFVTGTQVIRCDS	not failed
MAASPKDPLDWAALLQLQMDEAFDFILRSEAGSVAECDLSPPVDIFETPDAFSVEFDLPGTDPADLSLKLCCNMLILEGVKRDDSREGGSYLCLERRFGRFCRTVEIPPTVDVSAVRADYRRGVLTVTFPRLSDRRKVMRDIPIIQGDN	failed
MADDDHIEAVLARLSRPQKLALVRGATDPEGTATGYLSGVEEAGIPPFRLVDGPLGIRAEGQRATAFPASIATAATFDPDLARQQGAAMGREAAALGQDALLAPGVNIIRVPHCGRNFEYLSEDPVHAGAVGAGLIDGIQSADVVATVKHFVANNQETHRTTVSTEVDERTLRELYLPPFRSAVDAGVGSVMTAYNRVNGTHMSDHGRLVGDVLKSEWGFNGYVVSDWYGLESTVGAANAGMDVEMPGVAAPGAAEAANSDTADDAEEFEWPDGIPDATRAGLFGDPLVEAIDSGEVPAERLDDMVRRVLGQMDRFGRLDGSRTAAEDGASDDQAGELDSQRHRDIAADVAARGTVLLDNDGVLPLADGADVAVIGPNIDEPKLGGGGSSETTPVHSVTPVAGIESRAEGAVTTAFGVPQIESVSLFDLLPFVGEDDDTDGTAADIAQQDPSLDDAVDAAAAADVAVVFVRDATTEARDRDSLALPGQQDDLVSAVAATNENTVVVVRSGGPVELPWREDVAAVLEQWYPGQADGDAAAAVLYGDRDPSGRLPVTFAPEGEYPTAGAERRYPGVDDEVHYDEDVFIGYRHFDDEDADPTYPFGHGHSYATFEYGDAEITGEWTVAVPVKNAADRPGREVIQAYVRPPSVDGVDRPRRELAGFEAVQLDADEQKTVALTLDDLAFSRYDPNSGWTVDTGTYTVEIGRSSRDIRTTVPVDR	failed
MADIRVTHEAQVTVISFPAVFQRLRETEVEQIASTFLAAMQGAQPRKVLIDLEGVEFFGSSFIELLVRGWKRIKEDQQGVFALCSVSPYCVEVLQVTHIDEVWPRYSTKQEALLAMAS	not failed
MADLFDGMKRRMDALIAERFGMKVNINGTDCIVVESDFLAELGPVEGNGKNVVVFSGNVIPRRGDRVVLRGSEFTVTRIRRFNGKPQLTLEENNGGKGA	not failed
MADRPHPYDRAPGGSSGSHDRTGVFRRNPDGGLPDRIDSLYRPEPAARSASDAAATRRLSRTSGTPPRRPTPRSRGRDSGGWERRERERRARRRKKAAVLVLVLLLLLPTVGYLWANSRLNRVAALVPYEGRPDDQPGTTYLIVGSDSREGLSDEDMEALRTGKAEGKRTDTIMVLYVPTEGRPAIISVPRDSYVEIPGIGANKINAAYAEALGGGPATLVRTFEQASGVRIDHYVEIGFAGFVDIVDAVGGVELCPEEAMEDPKAGLDIEAGCQVMDGPTALGYVRTRATPRADLDRIQRQREFFSALIQQATAPSTLFNPFRSIPLVLSGTSTFSVDEGDSLMDLAWLALAMRDSPATTAVPVGSTPTLDVGSVVLWDEARAEEMFAAMREGRPIPESAMQD	failed
MADSSNKKKAASHESKKSNMEIMFSGSDSLTKRERRKKKQLIARSVGFALIGIEVIALIIFLAALFKLNMIPAKYMAMLIGILLLITVYNVLSQFTKAHWVGKVLAVLLAVVMFVGSSYIGKANSVISNIAGVTTKTDTFSLVVLATDPATGVEATKNYTFGYNKINNKDMAESLIQEVNTTLGTNVKTRTYDNWTNIINALYNNEVKVIVFNESNRAMLEEQFTDFEEKTKVIYTKTYTTQIKENVVNKNTATESFTIYVSGNDDYGAISANGRSDVNIVATFNPKTRQVLMVSTPRDYWVPVDTLSTDSNGKAVTGYEKLTHAGNYGVDSSISTLESLYGVDVDYYVKVNFTGAVGVIDALGGITINSDVKFTNGEDAAPVAYNFVVGPNECDGEKALAFCRERQAFSDGDNQRGRNQMAAIEGMIDKATSTAILTQYNKVLDAVSGLIATNMPDSAISNLVKAQINDPTGWNIMSYSVSGTGATKTGQLFGIVGMSVIEPDYSTVNTAIELMSKVRNGEVFDIDQFLEDKALESGTTQAR	failed
MADSTAMADAIWFGGPIVTIDAHTPSARAVAVRDGRIMAVGREHAVLRYRGPDTRMHDLRGATLLPGFVDAHSHVSTVGLEHHHHHH	failed
MADTVEEPQLQNGAAPAESETEQNPIPEPQLQTEPKLTGEIPEIEADLTPEEVQSEVTDAKPEEVQSEVKPEEVKTVVTDAKPEEAQSEVKPEEVQSVVTDTKPDLTDVDLSPGGSEEIPIRSTEVEQESTTSVLKKDDDGNKTFTMRELLSELKSEEGDGTPHSSASPFSRESASQPAENNPAMDLINRIQVNDEEGRSRQRVLAFAARKYASAIERNPDDHDALYNWALILQESADNVSPDSVSPSKDDLLEEACKKYDEATRLCPTLYDAYYNWAIAISDRAKIRGRTKEAEELWEQAADNYEKAVQLNWNSSQALNNWGLVLQELSQIVPAREKEKVVRTAISKFRAAIRLQFDFHRAIYNLGTVLYGLAEDTLRTGGSGNGKDMPPGELYSQSAIYIAAAHSLKPSYSVYSSALRLVRSMLPLPHLKVGYLTAPPVGNSLAPHSDWKRTEFELNHERLLQVLKPEPREMGRNLSGKAETMSTNVERKTVKVNITEIVSVTPCADLTLPPGAGLCIDTIHGPVFLVADSWESLDGWLDAIRLVYTIYARGKSDVLAGIITG	failed
MADVVVGIQWGDEGKGKIVDRIAKDYDFVVRYQGGHNAGHTIVHKGVKHSLHLMPSGVLYPKCKNIISSAVVVSVKDLCEEISAFEDLENRLFVSDRAHVILPYHAKKDAFKEKSQNIGTTKKGIGPCYEDKMARSGIRMGDLLDDKILEEKLNAHFKAIEPFKKAYDLGENYEKDLMGYFKTYAPKICPFIKDTTSMLIEANQKGEKILLEGAQGTLLDIDLGTYPFVTSSNTTSASACVSTGLNPKAINEVIGITKAYSTRVGNGPFPSEDTTPMGDHLRTKGAEFGTTTKRPRRCGWLDLVALKYACALNGCTQLALMKLDVLDGIDAIKVCVAYERKGERLEIFPSDLKDCVPIYQTFKGWEKSVGVRKLDDLEPNVREYIRFIEKEVGVKIRLISTSPEREDTIFL	failed
MADWLIGLIMGAVEGLTEFLPVSSTGHMILTGHLIGFDDERAKVFEVVIQLGSILAVVVIFWKRLWSLVGIGKVTDGPSLNLLHIIIGMIPAGVLGVLFHSTIKEGLFGPGPVVISLVAGGILMIVAEKFSKPSTARTLDEITYKQAFTIGMFQCLALWPGFSRSGSTISGGLLARVSHTAAAEYTFILAVPMMVAASGLDLIKSWDVLSSADITLFVTGFVTAFVVAMLAIVSFLKLLSRVKLTPFAYYRFILAAVFYFFIM	failed
